Results published in patent US20220144922A1.

Assays:
[1] = molecular target: HMPV F protein (NL/1/00, A1 sublineage), on virus (human metapneumovirus); assay: cell-based or functional assay
[2] = molecular target: RSV F protein of subtype A strain A2, on virus (respiratory syncytial virus subtype A strain A2) (UniProt P03420); assay: cell-based or functional assay
RSV F protein of subtype A strain A2, on virus (respiratory syncytial virus subtype A strain A2), sequence (P03420 26-574): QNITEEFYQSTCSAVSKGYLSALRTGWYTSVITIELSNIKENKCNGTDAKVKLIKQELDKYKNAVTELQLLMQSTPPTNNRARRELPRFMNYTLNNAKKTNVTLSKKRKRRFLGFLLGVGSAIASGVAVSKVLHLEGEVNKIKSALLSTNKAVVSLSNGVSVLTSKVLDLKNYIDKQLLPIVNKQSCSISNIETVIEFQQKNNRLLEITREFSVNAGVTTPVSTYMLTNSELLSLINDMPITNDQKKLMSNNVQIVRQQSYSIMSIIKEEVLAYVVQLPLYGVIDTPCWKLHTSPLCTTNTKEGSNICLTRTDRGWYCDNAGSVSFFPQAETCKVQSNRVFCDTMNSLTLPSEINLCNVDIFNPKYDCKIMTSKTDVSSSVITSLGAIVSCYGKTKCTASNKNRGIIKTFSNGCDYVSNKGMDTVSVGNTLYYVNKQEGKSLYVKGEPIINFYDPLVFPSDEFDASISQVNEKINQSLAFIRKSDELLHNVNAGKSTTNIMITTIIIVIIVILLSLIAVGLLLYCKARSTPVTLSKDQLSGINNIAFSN

## MPE8 (antibody)
[1]
  HMPV-A1 IC50: 0.07 µg/mL
[2]
  RSV-A2 IC50: 0.04 µg/mL
